For test [1], the target named is yeast Dcn1 potentiating neddylation domain (yDcn1^P) (yeast) (UniProt Q12395). In words: ITC. (In general: In ITC the heat of successive injections is recorded.)
In test [2] the target is human Dcn1 potentiating neddylation domain (hDcn1^P) (human) (UniProt Q96GG9). In words: ITC.
Chain of UniProt Q96GG9 (Q96GG9 62-259): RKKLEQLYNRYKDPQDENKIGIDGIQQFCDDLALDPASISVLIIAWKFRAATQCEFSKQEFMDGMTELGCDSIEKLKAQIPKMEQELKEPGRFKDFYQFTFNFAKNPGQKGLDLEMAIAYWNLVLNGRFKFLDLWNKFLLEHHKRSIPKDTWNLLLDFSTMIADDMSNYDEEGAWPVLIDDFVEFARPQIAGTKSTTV

Chain of UniProt Q12395 (Q12395 70-269): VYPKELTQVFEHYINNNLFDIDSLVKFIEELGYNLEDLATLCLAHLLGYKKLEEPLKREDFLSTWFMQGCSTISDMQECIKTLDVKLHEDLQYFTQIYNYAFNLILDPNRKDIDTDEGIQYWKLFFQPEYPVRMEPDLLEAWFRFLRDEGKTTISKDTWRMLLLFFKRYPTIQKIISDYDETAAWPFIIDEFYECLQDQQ

Turning to “N-terminally formylated yeast Ubc12 peptide”, in test [1], the fold change of Kd against the acetylated peptide (weaker binding) amounted to 17 fold and the fold improvement of binding over the unacetylated peptide came out at 10 fold.
For “N-terminally formylated human Ubc12 peptide”, in test [2], the fold change of Kd against the acetylated peptide (weaker binding) was 9 fold and the fold improvement of binding over the unacetylated peptide came to 10 fold.

The values above are taken from publication PMC3214010.
